Measurements reported in patent US20190309066A1 (ARCH ONCOLOGY, published 2019).

Biological target: T1, human CD47 expressed on cells (human, UniProt Q08722 19-292)
T1 construct: also called hCD47; integrin-associated protein
Assay: flow cytometry on freshly isolated human RBCs, FITC-labelled donkey anti-human antibody, MFI
Procedure: FIG. 7. Binding of VLX9 Humanized mAbs to Human RBCs. […] RBCs were incubated for 60 minutes at 37° C. with various concentrations of VLX9 mAbs, washed and incubated for 1 hr with FITC-labelled donkey anti-human antibody. Cells were washed and antibody binding measured using flow cytometry.
Binding activities of chimeric and humanized VLX4, VLX8, and VLX9 mAbs to human CD47 on hRBCs were also determined using flow cytometry.

T1 sequence (Q08722 other isoform, or with tags, fused parts or gaps limits assumed): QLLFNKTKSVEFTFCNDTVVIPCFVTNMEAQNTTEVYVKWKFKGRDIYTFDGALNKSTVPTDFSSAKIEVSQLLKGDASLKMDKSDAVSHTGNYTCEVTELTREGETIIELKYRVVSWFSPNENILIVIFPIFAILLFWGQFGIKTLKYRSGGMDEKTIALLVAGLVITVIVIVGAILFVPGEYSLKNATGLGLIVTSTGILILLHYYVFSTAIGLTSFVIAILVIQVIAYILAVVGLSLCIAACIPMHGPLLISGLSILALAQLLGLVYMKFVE

- EC50 (read off the curve): ~500 pM
B1: VLX9 IgG2 (xi) (antibody)
heavy: QVQLQQFGAELAKPGASVQMSCKASGYTFTNYWIHWVKQRPGQGLEWIGYTDPRTDYTEYNQKFKDKATLAADRSSSTAYMRLSSLTSEDSAVYYCAGGGRVGLGYWGHGSSVTVSSASTKGPSVFPLAPCSRSTSESTAALGCLVKDYFPEPVTVSWNSGALTSGVHTFPAVLQSSGLYSLSSVVTVPSSNFGTQTYTCNVDHKPSNTKVDKTVERKCCVECPPCPAPPVAGPSVFLFPPKPKDTLMISRTPEVTCVVVDVSHEDPEVQFNWYVDGVEVHNAKTKPREEQFNSTFRVVSVLTVVHQDWLNGKEYKCKVSNKGLPAPIEKTISKTKGQPREPQVYTLPPSREEMTKNQVSLTCLVKGFYPSDIAVEWESNGQPENNYKTTPPMLDSDGSFFLYSKLTVDKSRWQQGNVFSCSVMHEALHNHYTQKSLSLSPGK
light: DVFMTQTPLSLPVSLGDQASISCRSSQNIVQSNGNTYLEWYLQKPGQSPKLLIYKVFHRFSGVPDRFSGSGSGTDFTLKISRVEAEDLGVYYCFQGSHVPWTFGGGTKVEIKRTVAAPSVFIFPPSDEQLKSGTASVVCLLNNFYPREAKVQWKVDNALQSGNSQESVTEQDSKDSTYSLSSTLTLSKADYEKHKVYACEVTHQGLSSPVTKSFNRGEC
notes: murine-human chimera; also called VLX9 IgG2 chimera (xi)
